According to patent US12576029B2, “Noncompetitive receptor-targeted vaccine delivery to plasmacytoid dendritic cells” (Washington University, priority 2022, dated 2026):

System: pDC
Assay: pDC fraction after FLT3L injection in mice
Type: in vivo
Conditions: after 7 days
Description: Inbred mice and distribution of dendritic cells: BL/6, SV129 and […] inbred mouse lines were obtained from Jackson Laboratory (Bar Harbor, ME) The distribution of dendritic cells were examined using flow cytometry by using fluorochrome-conjugated monoclonal antibodies. Briefly, cells from spleen and liver were isolated from the mice and stained using fluorophore labeled antibodies. Cells were then fixed using 4% paraformaldehyde and analyzed by flow cytometry.
Further, the amount of pDC fraction was found inducible with injection of FMS-like tyrosine kinase 3 ligand in mice after 7 days (FIG. 2A-2B). Incubation of bone marrow differentiation culture with mouse transferrin for 7 days enhanced CD71 expression and pDC fraction (FIG. 2C-2D).

B1: FMS-like tyrosine kinase 3 ligand: FMS-like tyrosine kinase 3 ligand injected in mice to induce pDC fraction (protein, UniProt P49771 27-235, looked up)
Fms-related tyrosine kinase 3 …: TQDCSFQHSPISSDFAVKIRELSDYLLQDYPVTVASNLQDEELCGGLWRLVLAQRWMERLKTVAGSKMQGLLERVNTEIHFVTKCAFQPPPSCLRFVQTNISRLLQETSEQLVALKPWITRQNFSRCLELQCQPDSSTLPPPWSPRPLEATAPTAPQPPLLLLLLLPVGLLLLAAAWCLHWQRTRRRTPRPGEQVPPVPSPQDLLLVEH
Question: How did the pDC fraction turn out when B1 was run?
Answer: inducible

Question: What about the pDC fraction (listed as FLT3L) of the same molecule?
Answer: inducible upregulation
